Tests used:
[1] = fold lower affinity than FGF-2; cited from earlier work
Source text: In our present study, we wanted to explore the potential of CXCL9(74-103), a high affinity GAG-binding peptide, to interfere with angiogenesis by targeting growth factor-induced signaling cascades and associated processes. […] The obtained KD value lies within the range of the concentrations that were applied in the different in vivo and in vitro assays reported here. FGF-2-mediated proliferation, chemotaxis and sprouting in vitro was diminished by CXCL9(74-103). Also in vivo, CXCL9(74-103) treatment attenuated FGF-2-mediated neovascularization in the Matrigel plug assay. The inhibitory mechanism responsible for countering FGF-2 could be that (1) by direct interaction with FGF-2, CXCL9(74-103) can t ...

[2] = tested on: human microvascular endothelial cells (HMVECs); assay: xCELLigence chemotaxis assay (HMVEC migration); assay type: cell-based; details: EGF 10 ng/mL, FGF-2 30 ng/mL or VEGF165 10 ng/mL in lower chamber
Description: To evaluate the effect of the CXCL9-derived peptides on growth factor-induced endothelial cell migration, the xCELLigence® real-time cell analyzer (RTCA DP) system (ACEA Biosciences, Inc.; San Diego, CA, USA) was used. First, 160 µL MCDB131 medium (Gibco) supplemented with 0.4% (v/v) FCS (control medium) or 160 µL control medium with 30 ng/mL FGF-2, 10 ng/mL VEGF165 or 10 ng/mL EGF were added to the lower chamber of a cell invasion/migration (CIM)-Plate (ACEA Biosciences, Inc.). After assembly of the lower and upper chamber, 50 µL of serum-free MCDB131 medium was added in the upper wells. Following equilibration of the plate at 37 °C for 1 h, HMVECs were added in the upper chamber at 4 × 10^4 cells in 100 µL/well. CXCL9(74-103) or CXCL9(86-103) was added together with the cells in the upper compartment at a concentration of 0.3 or 3 µM. The assembled CIM-Plate was left at room temperature for 30 min to allow the cells to settle onto the membrane. Finally, the plate was placed in the instrument at 37 °C to monitor cell migration for 15 h. Cell migration from one compartment to the other was recorded (one recording every minute) as changes in electrical impedance. These changes were converted into cell indices, as a measure of cell migration.

[3] = tested on: human microvascular endothelial cells (HMVECs); assay: Endothelial cell proliferation assay (MTT or ATP lite); assay type: cell-based; details: EGF, VEGF165 5 ng/mL or FGF-2 3 ng/mL as single stimulus
Description: The ability of the CXCL9-derived peptides to inhibit growth factor-induced proliferation of endothelial cells was assessed. HMVECs were seeded at 5 × 10^3 cells/well in EBM™-2 medium containing 1% (v/v) FCS (proliferation medium). After settling of the cells, they were stimulated with EGF, VEGF165 (both 5 ng/mL) or FGF-2 (3 ng/mL) as a single stimulus or in combination with CXCL9(86-103) or CXCL9(74-103) at 0.3 or 3 µM in proliferation medium or left untreated. HMVECs were also treated with 0.3 or 3 µM of CXCL9(74-103) or 3 µM of CXCL9(86-103) alone to assess the effect of CXCL9-derived peptide treatment on spontaneous proliferation. After 3 to 4 days, a 3-(4,5-dimethylthiazol-2-yl)-2,5-diphenyl tetrazolium bromide (MTT) or ATP lite assay was performed. The ATP lite assay was performed according to the manufacturer’s instructions (Perkin Elmer, Waltham, MA). When MTT was used as substrate, the medium was replaced with 200 µL of MTT solution (RPMI without phenol red containing 0.4 g/L MTT) and the cells were incubated at 37 °C and 5% CO2 in the dark for 4 hours. Then, the MTT solution was discarded and the formed formazan crystals were dissolved in 200 µL acidic propanol [0.04 M HCl, 0.1% (v/v) NP-40 in isopropanol] under continuous shaking in the dark for 10 min. The optical densities were measured at 570 nm and 630 nm (reference wavelength).

[4] = tested on: human microvascular endothelial cells (HMVECs); assay: xCELLigence adhesion assay; assay type: cell-based; details: 50 ng/mL, 1 h, compared to untreated cells
Description: The wells of an E-plate (ACEA Biosciences, Inc.) were washed and coated with 0.1% (v/v) gelatin in phosphate-buffered saline (PBS) at 37 °C for 1 h. Following a washing step, wells were incubated with 0.1% (v/v) bovine serum albumin (BSA) in PBS at 37 °C for 1 h. After washing, 50 µL basal MCDB131 medium was added and the plate was allowed to equilibrate at 37 °C. HMVECs were harvested and seeded at 4 × 10^4 cells/well together with 50 ng/mL VEGF165 with or without 0.03, 0.3 or 3 µM of CXCL9(74-103) or 3 µM of CXCL9(86-103) in 100 µL control medium (vide supra). Real-time changes in electrical impedance depicted as cell indices, as measure for cell adhesion and spreading, were analyzed using the xCELLigence® RTCA DP System. The adhesion of HMVECs was analyzed 1 h after seeding.

B1: VEGF165: human recombinant VEGF165 (Biolegend), stimulus (protein)
chain: MNFLLSWVHWSLALLLYLHHAKWSQAAPMAEGGGQNHHEVVKFMDVYQRSYCHPIETLVDIFQEYPDEIEYIFKPSCVPLMRCGGCCNDEGLECVPTEESNITMQIMRIKPHQGQHIGEMSFLQHNKCECRPKKDRARQENPCGPCSERRKHLFVQDPQTCKCSCKNTDSRCKARQLELNERTCRCDKPRR
affinity for heparin compared to FGF-2 [1]: 8 fold | enhancement of migration by growth factor alone [2]: significant enhancement of endothelial cell migration | enhancement of proliferation by growth factor alone [3]: significant enhancement of proliferation | adhesion in response to VEGF165 alone [4]: HMVECs adhered more profoundly to the substratum compared to untreated cells
